# Data: patent US20050153894A1, “p21 peptides” (Cyclacel Limited, priority 1999, published 2005)
# Where two headings read alike, the source gives them in different places. Square brackets hold non-standard residues; d marks the D form. Ends that are not written are not given here. 1Nal = N[C@@H](Cc1cccc2ccccc12)C(=O)O; Phe(ol) = N[C@H](CO)Cc1ccccc1; Tle = CC(C)(C)[C@H](N)C(=O)O; Pse = Phenylserine
# What was measured:
# [1] = biological target: T1, Cyclin D1 (Homo sapiens, UniProt P24385); test: Competitive Cyclin D1 binding assay (ELISA), immobilised biotinylated p21 (149-159); details: for IC50: immobilised p21 (149-159) peptide
# T1 construct: made in house
# T1 sequence (P24385 whole entry): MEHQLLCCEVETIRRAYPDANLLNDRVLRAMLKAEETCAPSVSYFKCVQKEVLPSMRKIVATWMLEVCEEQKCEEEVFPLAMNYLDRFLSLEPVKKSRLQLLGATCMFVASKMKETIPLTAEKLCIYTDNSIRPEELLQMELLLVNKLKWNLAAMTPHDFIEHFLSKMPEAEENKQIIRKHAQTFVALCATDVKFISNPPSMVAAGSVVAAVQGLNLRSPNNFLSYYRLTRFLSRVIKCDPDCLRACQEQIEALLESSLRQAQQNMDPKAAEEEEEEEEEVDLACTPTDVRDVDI
# Source text: The amount of bound Cyclin D1/Cyclin A was immunodetected and quantified by Turbo-ELISA reagent (PIERCE).
# The next important question was if these peptides share the same kinase inhibitory mechanism (bind to the same Cyclin docking site).
# [2] = biological target: T2, CDK4/Cyclin D1 (Homo sapiens, UniProt P24385); test: CDK4/Cyclin D1 kinase assay, phosphorylation of GST-Rb; type: biochemical
# T2 construct: made in house; host or cells: CDK4: Sf9 insect cells (baculovirus)
# T2 sequence (P24385 whole entry): as above
# T2 sequence (P11802 whole entry partner): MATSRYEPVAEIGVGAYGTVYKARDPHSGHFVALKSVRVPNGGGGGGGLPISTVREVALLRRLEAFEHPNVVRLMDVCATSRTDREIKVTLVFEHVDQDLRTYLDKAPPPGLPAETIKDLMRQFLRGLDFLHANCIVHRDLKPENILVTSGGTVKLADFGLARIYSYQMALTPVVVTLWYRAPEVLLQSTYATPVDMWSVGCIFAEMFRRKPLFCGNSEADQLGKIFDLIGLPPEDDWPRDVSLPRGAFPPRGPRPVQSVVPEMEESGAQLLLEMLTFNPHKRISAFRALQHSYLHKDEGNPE
# Description: (§1) The phosphorylation reaction mixture (total volume 40 μl) consisted of 50 mM HEPES pH 7.4, 20 mM MgCl2, 5 mM EGTA, 2 mM DTT, 20 mM β-glycerophosphate, 2 mM NaF, 1 mM Na3VO4, Protease Inhibitors Cocktail (Sigma, see above), BSA 0.5 mg/ml, 1 μg purified enzyme complex, 10 μl of GST-Rb-Sepharose beads, 100 μM ATP, 0.2 μCi ^32P-ATP. The reaction was carried out for 30 min at 30° C. at constant shaking. At the end of this period 100 μl of 50 mM HEPES, pH 7.4 and 1 mM ATP were added to each well and the total volume was transferred onto GFC filtered plate. The plate was washed 5 times with 200 μl of 50 mM HEPES, pH 7.4 and 1 mM ATP. To each well were added 50 μl scintillant liquid and the radioactivity of the samples was measured on Scintilation counter (Topcount, HP). The IC50 values of different peptides were calculated using GraFit software.
# Peptides were synthesized as described above. Cyclin D1 was expressed in E coli BL21(DE3) using PET expression vector and purified from the inclusion bodies. After refolding Cyclin D1 was cross-linked on SulfoLink agarose support (PIERCE). CDK4-6×His was expressed in Sf9 insect cells infected with the appropriate baculovirus construct and purified by metal-affinity chromatography (Quiagen). […] CDK4/Cyclin D1 phosphorilation of Rb was determined by incorporation of radio-labeled phosphate in GST-Rb in 96-well format kinase assay. […] The reaction was carried out for 30 min at 30 C at constant shaking. The GST-Rb-Sepharose beads were washed with 50 mM HEPES and 1 mM ATP and the radioactivity was measured on Scintillation counter (Topcount, HP)
# [3] = biological target: T3, CDK2/Cyclin E (Homo sapiens, UniProt P24864); test: CDK2/Cyclin E kinase assay, phosphorylation of GST-Rb; type: biochemical
# T3 construct: 6xHis; made in house; host or cells: Sf9 insect cells (baculovirus co-expression)
# Description: as §1
# [4] = biological target: T4, CDK1/Cyclin B (Homo sapiens, UniProt P14635); test: CDK1/Cyclin B kinase assay, phosphorylation of GST-Rb; type: biochemical; details: CDK1-Cyclin B induced phosphorylation of GST-Rb
# T4 construct: 6xHis; made in house; host or cells: Sf9 insect cells (baculovirus co-expression)
# T4 sequence (P14635 whole entry): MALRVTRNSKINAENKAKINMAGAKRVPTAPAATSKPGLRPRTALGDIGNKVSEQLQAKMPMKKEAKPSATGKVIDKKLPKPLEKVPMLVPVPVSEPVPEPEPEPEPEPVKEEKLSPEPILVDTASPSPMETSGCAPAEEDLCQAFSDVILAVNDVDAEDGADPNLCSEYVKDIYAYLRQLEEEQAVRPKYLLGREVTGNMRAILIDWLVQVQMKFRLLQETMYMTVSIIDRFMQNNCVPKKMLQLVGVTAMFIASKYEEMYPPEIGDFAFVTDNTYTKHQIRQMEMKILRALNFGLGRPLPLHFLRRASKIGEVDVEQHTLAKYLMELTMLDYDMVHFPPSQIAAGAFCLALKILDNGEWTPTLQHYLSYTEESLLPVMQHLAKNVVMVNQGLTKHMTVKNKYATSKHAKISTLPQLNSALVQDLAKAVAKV
# T4 sequence (P06493 whole entry partner): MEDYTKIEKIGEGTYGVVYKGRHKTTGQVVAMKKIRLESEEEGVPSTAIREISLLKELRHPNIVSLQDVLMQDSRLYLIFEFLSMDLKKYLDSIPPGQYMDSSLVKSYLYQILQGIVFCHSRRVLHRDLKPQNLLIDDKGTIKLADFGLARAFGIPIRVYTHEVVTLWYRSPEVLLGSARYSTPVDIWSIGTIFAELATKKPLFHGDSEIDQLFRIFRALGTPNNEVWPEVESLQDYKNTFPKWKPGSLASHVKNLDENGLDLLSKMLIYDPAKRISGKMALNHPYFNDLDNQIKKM
# Description: as §1
# [5] = biological target: T4, CDK1/Cyclin B; test: CDK1/Cyclin B kinase assay, phosphorylation of Histone 1; type: biochemical; details: CDK1-Cyclin B induced phosphorylation of Histone 1
# Description: Histone 1 phosphorylation induced by CDK2/Cyclin E and CDK1/Cyclin B was measured using similar method. The concentration of Histone 1 in the kinase reaction was 1 mg/ml (unless different stated).
# [6] = biological target: Cyclin A (Homo sapiens, UniProt P20248); test: Cyclin A binding assay, immobilised biotinyl-Ahx-[…]NH2
# Cyclin A, sequence (P20248 whole entry): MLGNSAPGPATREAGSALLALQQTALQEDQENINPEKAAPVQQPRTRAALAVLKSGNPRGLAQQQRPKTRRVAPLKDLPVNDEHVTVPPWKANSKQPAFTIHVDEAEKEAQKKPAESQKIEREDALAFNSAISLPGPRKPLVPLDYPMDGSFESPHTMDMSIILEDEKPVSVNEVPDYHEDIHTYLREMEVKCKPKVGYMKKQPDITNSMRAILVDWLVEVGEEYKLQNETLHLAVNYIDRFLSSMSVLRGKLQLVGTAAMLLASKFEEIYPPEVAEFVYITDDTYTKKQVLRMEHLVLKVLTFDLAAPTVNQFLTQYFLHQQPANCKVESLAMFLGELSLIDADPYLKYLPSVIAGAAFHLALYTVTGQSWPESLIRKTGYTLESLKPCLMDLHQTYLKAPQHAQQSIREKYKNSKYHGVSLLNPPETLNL
# [7] = biological target: CDK2/cyclin A (Homo sapiens, UniProt P20248); test: CDK2/cyclin A kinase assay, substrate pRb(773-928); type: biochemical; details: for Relative activity Kinase Inhibition: pRb substrate, [ATP] = 100 μM
# Source text: Reactions were stopped on ice, followed by filtration through p81 filterplates (Whatman Polyfiltronics, Kent, UK).
# [8] = Leu157 substitutions, relative to H-His-Ala-Lys-Arg-Arg-Leu-Ile-Phe-NH2 (=1)
# [9] = His152 substitutions, relative to H-His-Ala-Lys-Arg-Arg-Leu-Ile-Phe-NH2 (=1)
# [10] = relative to SEQ ID No. 36 = 1, competitive cyclin A binding, immobilised biotinyl-Ahx-His-Ala-Lys-Arg-Arg-Leu-Ile-Phe-NH2
# [11] = relative to H-His-Ala-Lys-Arg-Arg-Leu-Ile-Phe-NH2 (SEQ ID No. 36) = 1, CDK2/cyclin A kinase assay
# [12] = Ile158 substitutions, relative to H-His-Ala-Lys-Arg-Arg-Leu-Ile-Phe-NH2 (=1)
# [13] = Arg156 substitutions, relative to H-His-Ala-Lys-Arg-Arg-Leu-Ile-Phe-NH2 (=1)
# [14] = Phe159 substitutions, relative to H-His-Ala-Lys-Arg-Arg-Leu-Ile-Phe-NH2 (=1)
# [15] = Ala153 substitutions, relative to H-His-Ala-Lys-Arg-Arg-Leu-Ile-Phe-NH2 (=1)
compound,measurement,setting,value
H-HAKRRLIF-NH2,IC50,[1],13 µM
CC(C)C[C@H](NC(=O)[C@H](CCCNC(=N)N)NC(=O)[C@H](CCCNC(=N)N)NC(=O)[C@H](CCCCN)NC(=O)[C@H](CO)NC(=O)[C@@H](N)Cc1c[nH]cn1)C(=O)N[C@@H](Cc1ccccc1)C(=O)NCC(N)=O,IC50,[1],> 200 µM
"CC[C@H](NC(=O)[C@H](C)NC(=O)[C@@H](N)CO)C(=O)N[C@@H](CCCNC(=N)N)C(=O)N[C@@H](CC(N)=O)C(=O)N[C@@H](CC(C)C)C(=O)N[C@@H](Cc1ccccc1)C(=O)NCC(N)=O [SEQ ID NO. 41, H-Ser-Ala-Abu-Arg-Asn-Leu-Phe-Gly-NH2]",IC50,[1],> 200 µM
CC(C)C[C@H](NC(=O)[C@H](CC(=O)O)NC(=O)[C@H](CC(C)C)NC(=O)[C@H](CCCNC(=N)N)NC(=O)[C@H](CCCNC(=N)N)NC(=O)[C@H](CCCCN)NC(=O)[C@H](CO)NC(=O)[C@@H](N)Cc1c[nH]cn1)C(N)=O,"inhibition of CDK4/Cyclin D1 phosphorylation of GST-Rb, in words",[2],not able to inhibit
same,Kinase Inhibition Cyclin D1/CDK4 % Inhibition,[2]; phosphorylation of pRb,24%
same,"competition with Biotin-DFYHSKRRLIF for binding to Cyclin D1, in words",[1],not able
same,IC50,[1],> 200 µM
same,Kinase Inhibition Cyclin E/CDK2 % Inhibition,[3]; phosphorylation of pRb,74%
CC[C@H](C)[C@H](NC(=O)[C@H](CC(C)C)NC(=O)[C@H](CCCNC(=N)N)NC(=O)[C@H](CCCNC(=N)N)NC(=O)[C@H](CCCCN)NC(=O)[C@H](C)NC(=O)[C@H](Cc1c[nH]cn1)NC(=O)[C@H](Cc1ccc(O)cc1)NC(=O)[C@H](Cc1ccccc1)NC(=O)[C@@H](N)CC(=O)O)C(=O)N[C@@H](Cc1ccccc1)C(=O)N[C@@H](CO)C(N)=O [p21(149-160)Ser153Ala],IC50,[4],> 200 µM
same,IC50,[5],> 200 µM
same,IC50,"[3]; read-out: IC50, CDK2-Cyclin E induced phosphorylation of GST-Rb",0.04 µM
CC(C)C[C@H](NC(=O)[C@H](CC(=O)O)NC(=O)[C@H](CC(C)C)NC(=O)[C@H](CCCNC(=N)N)NC(=O)[C@H](CCCNC(=N)N)NC(=O)[C@H](CCCCN)NC(=O)[C@@H](NC(=O)[C@@H]1CCCN1)C(C)C)C(N)=O [reference compound],"inhibition of CDK4/Cyclin D1 phosphorylation of GST-Rb, in words",[2],not able to inhibit
same,Kinase Inhibition Cyclin D1/CDK4 % Inhibition,[2]; phosphorylation of pRb,58%
same,IC50,"[2]; phosphorylation of pRb, read-out: Kinase Inhibition Cyclin D1/CDK4 IC50",99 µM
same,"competition with Biotin-DFYHSKRRLIF for binding to Cyclin D1, in words",[1],not able
same,IC50,[1],> 100 µM
same,Kinase Inhibition Cyclin E/CDK2 % Inhibition,[3]; phosphorylation of pRb,74%
same,IC50,"[3]; phosphorylation of pRb, read-out: Kinase Inhibition Cyclin E/CDK2 IC50",2.1 µM
H-His-Ala-Lys-Arg-Arg-1Nap-Ile Phe-NH2 (H-HAKRR[1Nal]IF-NH2; SMILES CC[C@H](C)[C@H](NC(=O)[C@H](Cc1cccc2ccccc12)NC(=O)[C@H](CCCNC(=N)N)NC(=O)[C@H](CCCNC(=N)N)NC(=O)[C@H](CCCCN)NC(=O)[C@H](C)NC(=O)[C@@H](N)Cc1c[nH]cn1)C(=O)N[C@@H](Cc1ccccc1)C(N)=O),Relative activity Cyclin A Binding,[6]; [8],<0.1
same,Relative activity Kinase Inhibition,[7]; [8],<0.1
"H-Pya-Ala-Lys-Arg-Arg-Leu-Ile Phe-NH2 (XAKRRLIF; N-terminal Pya, C-terminal amide)",Relative activity Cyclin A Binding,[6]; [9],0.2
same,Relative activity Kinase Inhibition,[7]; [9],<0.1
120 (H-HAKRRLI[Phe(ol)]) [compound 120],Relative activity Cyclin A Binding,[6]; [10],1.0
same,Relative activity Kinase Inhibition,[7]; [11],0.6
H-His-Ala-Lys-Arg-Arg-Phe-Ile Phe-NH2 (H-HAKRRFIF-NH2),Relative activity Cyclin A Binding,[6]; [8],<0.1
same,Relative activity Kinase Inhibition,[7]; [8],<0.1
H-His-Ala-Lys-Arg-Arg-Val-Ile Phe-NH2 (H-HAKRRVIF-NH2),Relative activity Cyclin A Binding,[6]; [8],<0.1
same,Relative activity Kinase Inhibition,[7]; [8],<0.1
H-Ala-Ala-Lys-Arg-Arg-Leu-Ile Phe-NH2 (H-AAKRRLIF-NH2),Relative activity Cyclin A Binding,[6]; [9],2.5
same,Relative activity Kinase Inhibition,[7]; [9],1.8
HAKRRLAF-NH2,Relative activity Cyclin A Binding,[6]; [12],0.8
same,Relative activity Kinase Inhibition,[7]; [12],0.3
H-His Ala-Lys-Arg-Arg-Ile-Ile Phe-NH2 (H-HAKRRIIF-NH2),Relative activity Cyclin A Binding,[6]; [8],0.2
same,Relative activity Kinase Inhibition,[7]; [8],1.5
H-His-Ala-Lys-Arg-Ala-Leu-Ile Phe-NH2 (H-HAKRALIF-NH2),Relative activity Cyclin A Binding,[6]; [13],<0.1
same,Relative activity Kinase Inhibition,[7]; [13],<0.1
CC(=O)N[C@@H](CCCN=C(N)N)C(=O)N[C@@H](CCCN=C(N)N)C(=O)N[C@@H](CC(C)C)C(=O)N[C@@H](CC(N)=O)C(=O)N[C@@H](Cc1ccccc1)C(N)=O [compound 378],IC50,[6],8.15 µM
same,IC50,[7],37.2 µM
110 (H-HAKRRLI[Pse]-OH) [compound 110],Relative activity Cyclin A Binding,[6]; [10],0.2
same,Relative activity Kinase Inhibition,[7]; [11],<0.1
H-His-Ala-Lys-Arg-Ser-Leu-Ile Phe-NH2 (H-HAKRSLIF-NH2),Relative activity Cyclin A Binding,[6]; [13],0.2
same,Relative activity Kinase Inhibition,[7]; [13],0.7
HAKRRLIK-NH2,Relative activity Cyclin A Binding,[6]; [14],<0.1
same,Relative activity Kinase Inhibition,[7]; [14],<0.1
H-His-Ala-Lys-Arg-Arg-Leu-Ile-1Nap-NH2 (H-HAKRRLI[1Nal]-NH2; SMILES CC[C@H](C)[C@H](NC(=O)[C@H](CC(C)C)NC(=O)[C@H](CCCNC(=N)N)NC(=O)[C@H](CCCNC(=N)N)NC(=O)[C@H](CCCCN)NC(=O)[C@H](C)NC(=O)[C@@H](N)Cc1c[nH]cn1)C(=O)N[C@@H](Cc1cccc2ccccc12)C(N)=O),Relative activity Cyclin A Binding,[6]; [14],<0.1
same,Relative activity Kinase Inhibition,[7]; [14],0.2
H-His Ala-Lys-Arg-Arg-Leu-Val-Phe-NH2 (H-HAKRRLVF-NH2),Relative activity Cyclin A Binding,[6]; [12],1.5
same,Relative activity Kinase Inhibition,[7]; [12],0.8
H-His-Bug-Lys-Arg-Arg-Leu-Ile Phe-NH2 (H-H[Tle]KRRLIF-NH2; SMILES CC[C@H](C)[C@H](NC(=O)[C@H](CC(C)C)NC(=O)[C@H](CCCNC(=N)N)NC(=O)[C@H](CCCNC(=N)N)NC(=O)[C@H](CCCCN)NC(=O)[C@@H](NC(=O)[C@@H](N)Cc1c[nH]cn1)C(C)(C)C)C(=O)N[C@@H](Cc1ccccc1)C(N)=O),Relative activity Cyclin A Binding,[6]; [15],1.2
same,Relative activity Kinase Inhibition,[7]; [15],0.2
HAKRRLF-NH2 [H-His-Ala-Lys-Arg-Arg-Leu-Phe-NH2],Relative activity Cyclin A Binding,[6]; [12],<0.1
same,Relative activity Kinase Inhibition,[7]; [12],<0.1
H-His-Ile-Lys-Arg-Arg-Leu-Ile Phe-NH2 (H-HIKRRLIF-NH2),Relative activity Cyclin A Binding,[6]; [15],0.2
same,Relative activity Kinase Inhibition,[7]; [15],0.5
